{"source": "patent US7378388B2", "about": "“Method of utilizing neurotrophins to manipulate reproductive capacity” (University of Medicine and Dentistry of New Jersey, priority 2001, dated 2008)", "molecules": {"B1": {"name": "neurotrophin-3 (protein, UniProt P20783 139-257, looked up)", "Neurotrophin-3": "YAEHKSHRGEYSVCDSESLWVTDKSSAIDIRGHQVTVLGEIKTGNSPVKQYFYETRCKEARPVKNGCRGIDDKHWNSQCKTSQTYVRALTSENNKLVGWRWIRIDTSCVCALSRKIGRT", "notes": "neurotrophin, Trk C ligand (Peprotech)"}, "B2": {"name": "brain-derived neurotrophic factor (protein, UniProt P23560 19-247, looked up)", "Neurotrophic factor BDNF …": "APMKEANIRGQGGLAYPGVRTHGTLESVNGPKAGSRGLTSLADTFEHVIEELLDEDQKVRPNEENNKDADLYTSRVMLSSQVPLEPPLLFLLEEYKNYLDAANMSMRVRRHSDPARRGELSVCDSISEWVTAADKKTAVDMSGGTVTVLEKVPVSKGQLKQYFYETKCNPMGYTKEGCRGIDKRHWNSQCRTTQSYVRALTMDSKKRIGWRFIRIDTSCVCTLTIKRGR", "notes": "neurotrophin, soluble polypeptide growth factor, Trk B ligand (Peprotech)"}, "B3": {"name": "neurotrophin-4/5 (protein, UniProt P34130 81-210, looked up)", "Neurotrophin-4": "GVSETAPASRRGELAVCDAVSGWVTDRRTAVDLRGREVEVLGEVPAAGGSPLRQYFFETRCKADNAEEGGPGAGGGGCRGVDRRHWVSECKAKQSYVRALTADAQGRVGWRWIRIDTACVCTLLSRTGRA", "notes": "neurotrophin, Trk B ligand (Peprotech)"}}, "key": {"cumulus cells": {"tested_on": "cumulus cells", "experiment": "BDNF production and secretion by cultured cumulus cells (BDNF ELISA of culture medium)", "assay_type": "cell-based, human", "settings": "10 μM forskolin, cumulus cells cultured 24 h, P=0.016", "description": "Cumulus cells, which are a mass of epithelial cells surrounding the ovum in the ovarian follicle, were removed from oocytes in preparation for IVF and were dissociated in hyaluronidase (100 IU/ml, Sigma Chemical Company, St. Louis, Mo.) then washed twice with HBSS. The resulting preparation of cumulus cells was of ninety-nine percent (99%) pure.\nFor the purpose of examining the regulation of BDNF expression by cAMP, cumulus cells were combined between two subjects for each experiment. […] The culture media was collected after 24 hours of culture for assay of BDNF.\nBDNF levels were determined using commercially available BDNF E max® immumoassay system (Promega, Madison, Wis.). The ELISA's were performed according to the manufacture's protocol. Follicular fluid, granulosa cell culture media, oocyte or embryo culture media was added to a 96-well immunoplate pre-coated with human BDNF specific monoclonal antibody. The plate was incubated at room temperature for 2 hours with shaking. Anti-BDNF monoclonal antibody was used as the capture Ab and Anti-BDNF pAb was used as reporter Ab. After washing, the amount of specifically bound pAb was detected using a species-specific anti-IgY antibody conjugated to horseradish peroxidase (HRP) as a tertiary reactant. […] Absorbency was measured at 450 nm using a microplate reader (Model Vmax kinetic microplate reader; Molecular Devices). […]"}, "mouse oocytes [1]": {"tested_on": "mouse oocytes", "experiment": "Effect of NT-4/5 and NT-3 on in vitro maturation of mouse oocytes", "assay_type": "cell-based", "experimental": "Eighteen 4-5 week old female C57BL/6 mice (Taconic Labs, German Town, N.Y.) were given a single intraperitoneal injection of 7.5 IU PMSG (Sigma, St. Louis, Mo.). Five hundred thirty-six (536) immature oocytes were harvested 48 hours after gonadotropin injection. Cumulus cells were removed mechanically (27 gauge insulin needles) at room temperature. Immature oocytes were equally divided into control (n=218) and experimental (n=318) groups and cultured in 5% CO2 in air, 37° C. in Human Tubal Fluid (HTF, Conception Technologies, San Diego, Calif.) for 24 and 48 hours with 1 ng/ml (n=59), 10 ng/ml (n=98) and 100 ng/mI (n=11) of 10 NT-4/5 (Peprotech, Inc. Rocky Hill, N.J.) or 10 ng/ml (n=60) and 100 ng/ml (n=60) of NT-3 (Peprotech, Inc. Rocky Hill, N.J.) to examine the percentage of germinal vesicle breakdown. The percentage of polar body extrusion was also examined. Control oocytes (n=218) were cultured in HTF under the same conditions without addition of NT-4/5 (n=158) or NT-3 (n=60)."}, "mouse oocytes [2]": {"tested_on": "mouse oocytes", "experiment": "Effect of BDNF upon in vitro maturation of mouse oocytes", "assay_type": "cell-based", "settings": "100 ng/ml BDNF", "experimental": "Six (6) 4-5 week old female C57BL/6 mice (Taconic Labs, German Town, N.Y.) were given a single intraperitoneal injection of 7.5 IV PMSG (Sigma, St. Louis, Mo.). One hundred sixty (160) immature oocytes were harvested 48 hours after gonadotropin injection. Cumulus cells were removed mechanically (27 gauge insulin needles) at room temperature. Oocytes were equally divided into control and experimental groups. Immature oocytes (n-80) were incubated (5% CO2 in air, 37° C.) in Human Tubal Fluid (HTF, Conception Technologies, San Diego, Calif.) with 100 ng/ml BDNF (Peprotech, Inc. Rocky Hill, N.J.) Control oocytes (n=80) were cultured in HTF under the same conditions without addition of BDNF. […] (See FIG. 3)."}, "[3]": {"settings": "24 and 48 hours in culture, compared to controls"}}}
{"molecule": "C=C[C@@]1(C)CC(=O)[C@]2(O)[C@@]3(C)[C@@H](O)CCC(C)(C)[C@@H]3[C@H](O)[C@H](OC(C)=O)[C@@]2(C)O1", "note": "[Forskolin]", "values": [{"measurement": "increase of BDNF production", "setting": "cumulus cells", "result": 11, "unit": "fold"}]}
{"molecule": "B1", "values": [{"measurement": "germinal vesicle breakdown", "setting": "mouse oocytes [1]; [3]", "result": "did not alter"}, {"measurement": "mouse oocyte polar body extrusion", "setting": "mouse oocytes [1]; [3]", "result": "did not alter"}]}
{"molecule": "B2", "values": [{"measurement": "1st polar body extrusion", "setting": "mouse oocytes [2]; 20 hours, control 6.3%, p=0.017", "result": 18.8, "unit": "%"}, {"measurement": "1st polar body extrusion", "setting": "mouse oocytes [2]; 24 hours, control 6.3%, p=0.01", "result": 20, "unit": "%"}, {"measurement": "1st polar body extrusion", "setting": "mouse oocytes [2]; 48 hours, control 7.5%, p=0.013", "result": 21.3, "unit": "%"}]}
{"molecule": "B3", "values": [{"measurement": "mouse oocyte polar body extrusion", "setting": "mouse oocytes [1]; 1.0 ng/ml, 48 hours, p<0.05", "result": "significantly influenced"}, {"measurement": "mouse oocyte polar body extrusion", "setting": "mouse oocytes [1]; 10 ng/ml, 24 hours, <0.01", "result": "significantly influenced"}, {"measurement": "mouse oocyte polar body extrusion", "setting": "mouse oocytes [1]; 10 ng/ml, 48 hours, p<0.01", "result": "significantly influenced"}, {"measurement": "germinal vesicle breakdown", "setting": "mouse oocytes [1]; [3]", "result": "did not influence"}, {"measurement": "mouse oocyte polar body extrusion", "setting": "mouse oocytes [1]; [3]", "result": "significantly promoted"}]}
